Results reported in patent US20180094059A1.

Biological target: antigen- and TRAIL receptor-expressing Colo205 cells
Assay: flow cytometry, Colo205 cells

| Binder | EC50 [nM] |
| --- | --- |
| scFvhu225-EHD2-scTRAIL3-… (protein) DYKDDDDKGGGGSGTEVQLVESGGGLVQPGGSLRLSCAASGFSLTNYGVHWVRQAPGKGLEWLGVIWSGGNTDYNTPFTSRFTISRDNSKNTLYLQMNSLRAEDTAVYYCARALTYYDYEFAYWGQGTTVTVSSGGGGSGGGGSGGGGSDIQLTQSPSFLSASVGDRVTITCRASQSIGTNIHWYQQKPGKAPKLLIKYASESISGVPSRFSGSGSGTEFTLTISSLQPEDFATYYCQQNNNWPTTFGAGTKLEIKRAAAGGSGGDFTPPTVKILQSSCDGGGHFPPTIQLLCLVSGYTPGTINITWLEDGQVMDVDLSTASTTQEGELASTQSELTLSQKHWLSDRTYTCQVTYQGHTFEDSTKKCADSNGGSGGASSGGGPQRVAAHITGTRGRSNTLSSPNSKNEKALGRKINSWESSRSGHSFLSNLHLRNGELVIHEKGFYYIYSQTYFRFQEEIKENTKNDKQMVQYIYKYTSYPDPILLMKSARNSCWSKDAEYGLYSIYQGGIFELKENDRIFVSVTNEHLIDMDHEASFFGAFLVGGGPQRVAAHITGTRGRSNTLSSPNSKNEKALGRKINSWESSRSGHSFLSNLHLRNGELVIHEKGFYYIYSQTYFRFQEEIKENTKNDKQMVQYIYKYTSYPDPILLMKSARNSCWSKDAEYGLYSIYQGGIFELKENDRIFVSVTNEHLIDMDHEASFFGAFLVGGGPQRVAAHITGTRGRSNTLSSPNSKNEKALGRKINSWESSRSGHSFLSNLHLRNGELVIHEKGFYYIYSQTYFRFQEEIKENTKNDKQMVQYIYKYTSYPDPILLMKSARNSCWSKDAEYGLYSIYQGGIFELKENDRIFVSVTNEHLIDMDHEASFFGAFLVG | 0.58 |
| dsDb3M6-scTRAIL3-… (protein) DYKDDDDKGGGGSGTEVQLLESGGGLVQPGGSLRLSCAASGFTFSHYVMAWVRQAPGKCLEWVSSISSSGGWTLYADSVKGRFTISRDNSKNTLYLQMNSLRAEDTAVYYCTRGLKMATIFDYWGQGTLVTVSSGGGGSQSALTQPASVSGSPGQSITISCTGTSSDVGSYNVVSWYQQHPGKAPKLIIYEVSQRPSGVSNRFSGSKSGNTASLTISGLQTEDEADYYCSSYAGSSIFVIFGCGTKVTVLAAAGGSGGGPQRVAAHITGTRGRSNTLSSPNSKNEKALGRKINSWESSRSGHSFLSNLHLRNGELVIHEKGFYYIYSQTYFRFQEEIKENTKNDKQMVQYIYKYTSYPDPILLMKSARNSCWSKDAEYGLYSIYQGGIFELKENDRIFVSVTNEHLIDMDHEASFFGAFLVGGGPQRVAAHITGTRGRSNTLSSPNSKNEKALGRKINSWESSRSGHSFLSNLHLRNGELVIHEKGFYYIYSQTYFRFQEEIKENTKNDKQMVQYIYKYTSYPDPILLMKSARNSCWSKDAEYGLYSIYQGGIFELKENDRIFVSVTNEHLIDMDHEASFFGAFLVGGGPQRVAAHITGTRGRSNTLSSPNSKNEKALGRKINSWESSRSGHSFLSNLHLRNGELVIHEKGFYYIYSQTYFRFQEEIKENTKNDKQMVQYIYKYTSYPDPILLMKSARNSCWSKDAEYGLYSIYQGGIFELKENDRIFVSVTNEHLIDMDHEASFFGAFLVG | 32.5 |
